# Assay: yeast display, Sf9 membrane polyspecificity reagent, FACS + sequencing; frameworks hold sequencing errors
# Method in brief: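 Nanobodies came from a synthetic yeast display library in Saccharomyces cerevisiae BJ5465, induced with galactose for 36–48 hours and stained for 1 hour at 4 °C with 10% biotinylated, detergent-solubilized Sf9 membrane reagent. Cells were enriched on streptavidin microbeads and then FACS-sorted, with low and high (top ~1%) gates set on anti-HA fluorescence for expression and streptavidin fluorescence for reagent binding. Each polyreactivity label reflects the gate a clone came from. Genes were amplified by colony PCR, sequenced by MiSeq 2 × 250 and filtered by CDR length.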
row,Sequence,polyreactivity (PSR sort gate)
1,QVQLVESGGGLVQAGGSLRLSCAASGRTFKHYAMGWYRPAPGKERELVATITNTGGRTNYADSVKGRFTISRDNAKNTVYLQMYSLKPEDTAVYYCNRVNDYYRPGGRPFGIFDYWGQGTQVTVSS,low polyreactivity
2,QVQLVESGGGLVQAGGSLRLSCAASGRTFKKYAMGWYRQAPGKERELVAAISWSGGTTYYADSVKGRFTISRDNAKNTVYLQMNSLKPEDTAVYYCAARVSRTGHGYYYFWGQGTQVTVSS,high polyreactivity
3,QVQLVESGGGLVQAGGSLRLSCAASGRTFKKYAMGWYRQAPGKERELVAAITGSGGSTYYADSVKVRYTISRDNAKNTVYLQMNSLKPEDTAVYYCAAYAYGVGHSQDGGNYWGQCTQVTVSS,low polyreactivity
4,QVQLVESGGGLVQAGGSLRLSCAASGRTFKPYAMGWYRQAPGKERELVAAISSRGTSTNYADSVKGRFTISRDNAKNTVYLQMNSLKPEDTAVYYCNRVLLPGPQYQWGKAYDYWGQGTQVTVSS,high polyreactivity
5,QVQLVESGGGLVQAGGSLRLSCAASGRTFKRYAMGWYRQAPGKERELVAAISWSGTSTHYADSVKGRFTISRDNAKNTVYLQMNSLKPEDTAVYYCAARRYPVLNYDYWGQGTQVNVSS,high polyreactivity
6,QVQLVESGGGLVQAGGSLRLSCAASGRTFKSNAMRWYRQAPGKERELVATISRGGGSTYYADSVKGRFTISRDNAKNTVYLQMNSLKPEDTAVYYCAIGSNSYLRYHYTYPYDYWGQGTQVTVSS,high polyreactivity
7,QVQLVESGGGLVQAGGSLRLSCAASGRTFKSYAMGWYRQAPGKERELVAAISRSSGSTYYADSVKGRFTISRDNAKNTVYLQMNSLKPEDTAVYYCATTKRVGYNYWGQGTQVTVSS,high polyreactivity
8,QVQLVESGGGLVQAGGSLRLSCAASGRTFKSYTLGWYRQAPGKEREFVAAISSRGGNTYYADSVNGRFTISRDNAKNTVYLQMNSLKPEDTAVYYSAAESSFWSFPTYDYWGQGTQVTVSS,high polyreactivity
9,QVQLVESGGGLVQAGGSLRLSCAASGRTFKTYARGWYREAPGKERELVAAISRDGRTYYADSVKGRFTISRDNAKNTVYLQRNSLKPEDTAVYYCAVGIYDHLYNHEYWGQGTQVTVSS,low polyreactivity
10,QVQLVESGGGLVQAGGSLRLSCAASGRTFKTYTMGWYRQEPGKERELVAVISSGGGSTNYADSVKGRFTISRDNAKNTVYLQMNSLKPEDTAVYYCAARKTGRPKYRYDYWGQGTQVTVSS,low polyreactivity
11,QVQLVESGGGLVQAGGSLRLSCAASGRTFKYNAMGWYRQAPGKERELVAAISDRGTRKYYADSVKGRFTISRDNAKNSVYLQMNSLKPEDTAVYYCAARVTGKDRWYIYYWGQGTQVTVSS,high polyreactivity
12,QVQLVESGGGLVQAGGSLRLSCAASGRTFKYNAMGWYRQAPGKERELVAVIRYSGGTTYYADSVKGRFTISRDNAKNTVYLQMNSLKPEDTAVYYCNADGPYVLPGWYFRTDNSWGQGTQVTVSS,low polyreactivity
13,QVQLVESGGGLVQAGGSLRLSCAASGRTFKYNAMGWYRQAPGKERELVAVISRSTGRTYYADSVKGRFTISRDNAKNTFYLQMNSLKPEDTAVYSCNRVSRQYYYQRGFEYDYWGQGTQVTVSS,high polyreactivity
14,QVQLVESGGGLVQAGGSLRLSCAASGRTFKYYAMGWYRQAPGKERELVAAINSGGITYYADSVKGRFTISRDNAKNTVYLQMNSLKPEDTAVYYCAKVWKIGVLRYPSYGYYYWGQGTQVTVSS,high polyreactivity
15,QVQLVESGGGLVQAGGSLRLSCAASGRTFKYYAMGWYRQAPGKERELVAAITSTGGSTYYADSVKGRFTISRDNAKNTVYLQMHSLKPEDTAVYYCNRYTQYRDRSDNHWGQGTQVTVSS,high polyreactivity
16,QVQLVESGGGLVQAGGSLRLSCAASGRTFLGYAMGWSRQAPGKERELVAAISTGGGRTYYADSVKGRFTISRDNAKNTVYLQMNSLKPEDTAVYYCATVPRHGAPTTFNYWGQGTQVTVSS,high polyreactivity
17,QVQLVESGGGLVQAGGSLRLSCAASGRTFLGYAMGWYRQAPGKERELVAAISSSGGSTYYADSVKGRVTISRDNAKNTVYFQMNCLKPEDTAVYYCAKRKRATGASGHGFGYWGQGTQVTVSS,high polyreactivity
18,QVQLVESGGGLVQAGGSLRLSCAASGRTFLINAMGWYRQAPGKEREMVAAITQSGGSTYYADSVKGRFTISRDNAKYTVYLQMNSLKPEDTAVYNCNATPDSVRWDYALSVVRYEYWGQGTQVTVSS,low polyreactivity
19,QVQLVESGGGLVQAGGSLRLSCAASGRTFLINSMGWYRQAPGKERELVAGITRNGGTTYYADSVKGRFTISRDNAKNTVYLQMNSLKPEDTAVYYCAKRYPSWFNYWGQGTQVTVSS,high polyreactivity
20,QVQLVESGGGLVQAGGSLRLSCAASGRTFLIYAMGWYRQAPGKERELVAAITNGVDSTYYADSVKGRFTISRDNAKNTVYLQMNSLKPEDTAVYYCNADTVVEWYSPSREYDYWGQGTQVTVSS,low polyreactivity

row,Sequence,polyreactivity (PSR sort gate)
1,QVQLVESGGGLVQAGGSLRLSCAASGRTFLIYAMGWYRQAPGKERELVAGITRGSTTYADSVKGRFTISRDNAKNTVYLQMNSLKPEDTAVYYCAARNYSVATYGEYDDWGQGTQVTVSS,high polyreactivity
2,QVQLVESGGGLVQAGGSLRLSCAASGRTFLIYAMGWYRQAPGKETEFVAAIRGRGGSTYYADSVKGRFTISRDNAKNTVYFQMNCLKPVDTAVYYCAATFPGRSYRIRGYGYDYWGQGTQVTVSS,high polyreactivity
3,QVQLVESGGGLVQAGGSLRLSCAASGRTFLLNAMGWYRQAPGKERELVAAISRGGSTYYADSVKGRFTISRDNAKNTVYLQMNSLKPEDTAVYYCAARFWISHTHWDAGDYWGQGTQVTVSS,low polyreactivity
4,QVQLVESGGGLVQAGGSLRLSCAASGRTFLLYAMGWYRQAPGKERELVARITGRGGRTYYADSVKGRFTISRDNAKNTVYLQMNSLKPEDTAVYYCNKRYPLGTEYYYWGQGTQVTVSS,high polyreactivity
5,QVQLVESGGGLVQAGGSLRLSCAASGRTFLRYAMGWSRQAPGTETELVAAISSDGSTNYADSVKGRFTISRDNAKNTVYLQMNSLKPEDTAVYYCDADPQKWYTGYDYWGQGTQVTVSS,low polyreactivity
6,QVQLVESGGGLVQAGGSLRLSCAASGRTFLRYAMGWYREAPGKERELVAAITYGGRTNFADSVKGRFTISRDNAKNTVYFQMNSLKPEDTAVYYCAADRTYYYGLRVDYWGQGTQVTVSS,high polyreactivity
7,QVQLVESGGGLVQAGGSLRLSCAASGRTFLRYAMGWYRQAPGKERELVAAISWSGGRTYYADSVKGRFTISRDNAKNTVYLQMNSLKPEDTAVYYCNKVVLYGAHYYYWGQGTQVTVSS,high polyreactivity
8,QVQLVESGGGLVQAGGSLRLSCAASGRTFLTYVMGRYRQAPGKERELVAAITRGGRTNYADSVKGRFTISRDNAKNTVYLQMNSLKPEDTAVYYCARDDTPRYDYWGQGTQVTVSS,low polyreactivity
9,QVQLVESGGGLVQAGGSLRLSCAASGRTFLVNAMGWYRQAPGKERELVAAISSVGSTNYADSVKGRFTISRDNAKNTVYLQMNSLKPEVTSVYYCAKDAEYDCGQGTQVTVSS,low polyreactivity
10,QVQLVESGGGLVQAGGSLRLSCAASGRTFLWNAMGWYRQAPGKERELVAAITSGGRTTYADSVKGRFTISRDNAKNTVYLQMNSLKPEDTAVYYCAAVSANQDFDYWGQGTQVTVSS,high polyreactivity
11,QVQLVESGGGLVQAGGSLRLSCAASGRTFLYNAMGWYRQAPGKERELVAAISWSGGSTYYADSVKGRFTISRDNAKNTVYLQMNSLKPEDTAVYYCAATGRRSGFYYWGQGTQVTVSS,high polyreactivity
12,QVQLVESGGGLVQAGGSLRLSCAASGRTFLYVMGWNIQAPGKERELVAASSRGGSTSYADSVKGRFTISRDNAKNTVYLQMNSMKPEVTAVYYCAATNYWRDGYWGQGTQVTVSS,high polyreactivity
13,QVQLVESGGGLVQAGGSLRLSCAASGRTFLYYAMGWYRQAPGKERELVAAIDWSDDSTYYADSVKGRFTISRDNAKNTVYLQMNSLKPEDTAVYYCATDGLYLSWQYSWEELYYWGQGTQVTVSS,high polyreactivity
14,QVQLVESGGGLVQAGGSLRLSCAASGRTFLYYAMGWYRQAPGKERELVAAIRRGSSTYYADSVKGRFTISRDNAKNTVYLQMNSLKPEDTAVYYCAARGRYRIGPGRYGKRYDYWGQGTQVTVSS,high polyreactivity
15,QVQLVESGGGLVQAGGSLRLSCAASGRTFLYYAMGWYRQEPGKERELVAAITGRGGSTYNADSVKGLFTISRDNAQNTVYLKMNILKPEDTAVYYCAARDNWIRRDGYWGQGTQVTVSS,high polyreactivity
16,QVQLVESGGGLVQAGGSLRLSCAASGRTFLYYAMGWYRQSPGKERELVAAINRSGRTYYADSVKGRFTISRDNAKNTVYLQMNSLKPEDTAVYYCAADTRYPYRAYDYWGQGTQVTVSS,high polyreactivity
17,QVQLVESGGGLVQAGGSLRLSCAASGRTFLYYTMGWYRQAPGKERELVAAITSGTSTNYADSVKGRFTIARDNAKNTVYLQMNSQKPEDTAVYYCNKRAARSLNGYPLYGYYSWGQGTQVTVSS,low polyreactivity
18,QVQLVESGGGLVQAGGSLRLSCAASGRTFNAYAMGWYRQAPGKERELVAAISSGGSTYYADSVKGRFTISRDNAKYTVYLQMNSLKPEDTAVYYCNKVYGWRQFDYWGQGTQVTVSS,high polyreactivity
19,QVQLVESGGGLVQAGGSLRLSCAASGRTFNGYAMGWYRQAPGKERELVASITLRGGSTYYADSVKGRFTISRDNAKNTVYLQMNSLKPEDTAVYYCAVGKFVRYPGRWRYRYDYWGQGTQVTVSS,high polyreactivity
20,QVQLVESGGGLVQAGGSLRLSCAASGRTFNINALGWYRQAPGKERELVAAITWTGGGNTYYADSVKGRFTISRDNAKNTVYLQMNSLKPEDTAVYYCNADGRNYFYEGFWEGNYWGQGTQVTVSS,low polyreactivity

# From the nanobody polyreactivity screen of Harvey et al. (2022)
